Columns and labels:
[1] = target: wild-type non-luminescent polypeptide (Oplophorus gracilirostris, UniProt Q9GV45, A31E/A60N/A81I/F95D/I117V/K70R/L54V/L99Q/M102K/P142E/Q151K/Q38R/Q45L/V71I/Y165I); test: NLpep mutant luminescence with wild-type NLpoly lysate (Examples 7, 8, 12, 13); conditions: mutations based on alignment to fatty acid binding proteins
[2] = target: 11S (Oplophorus gracilirostris, UniProt Q9GV45, A31E/A60N/A81I/D135N/F58L/F95D/G42A/G62A/G78A/G94A/G98A/H120P/I103V/I117V/I134L/K70R/L176M/L54V/L73R/L99Q/M102E/N171T/P142E/Q151K/Q38E/Q45L/V71I/Y165I); test: Substrate effect on 11S/NLpep79 Kd (Example 55); format: binding; conditions: saturating (50 uM) vs sub-saturating (5 uM) furimazine
[3] = target: 5P (Oplophorus gracilirostris, UniProt Q9GV45, A31E/A60N/A81I/D135N/F95D/G42A/G62A/G78A/G94A/G98A/I117V/K70R/L176M/L54V/L99Q/M102K/N171T/P142E/Q151K/Q38E/Q45L/V71I/Y165I); test: Titration of 5P with NLpep88-HT (Example 47); format: biochemical; conditions: lower concentrations of NLpep88
5P, sequence (Q9GV45 other isoform, or with tags, fused parts or gaps with the stated changes): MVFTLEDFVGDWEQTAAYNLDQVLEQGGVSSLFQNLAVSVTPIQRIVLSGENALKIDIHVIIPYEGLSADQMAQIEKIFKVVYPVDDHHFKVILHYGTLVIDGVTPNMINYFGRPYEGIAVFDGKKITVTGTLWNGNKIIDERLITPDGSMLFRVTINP

[4] = target: T1, […] (Oplophorus gracilirostris, UniProt Q9GV45); test: Luminescence of non-luminescent polypeptide mutants upon complementation (Example 5, Table 4); conditions: complementation with peptide […]; induced E. coli culture, NANOGLO reagent
[5] = target: T1, […]; test: as above; conditions: complementation with peptide […]; induced E. coli culture, NANOGLO reagent; remark: listed apart in the source
[6] = Luminescence of NLpoly without NLpep (Example 57); format: biochemical; conditions: E. coli clarified lysate, NanoGlo+Fz
Method: 50 uL of each lysate and 50 uL NanoGlo+Fz were mixed and incubated for 5 min RT. Luminescence was measured on GloMax® Multi+ with 0.5 sec integration.

[7] = system: NLpep78-HT or NLpep79-HT; test: NLpoly variant luminescence without NLpep, with NLpep78-HT or NLpep79-HT (Examples 62, 93); format: biochemical; conditions: E. coli expression culture
Method: Single NLpoly variant colonies were inoculated with 200 uL minimal media and grown for 20 hrs at 37° C. on a shaker. 10 uL of the overnight culture were diluted into 190 uL fresh minimal media and grown for 20 hrs at 37° C. on a shaker. 10 uL of this overnight culture was then diluted into 190 uL auto-induction media (previously described) and grown for 18 hrs at 25° C. on a shaker. 10 uL of this expression culture was mixed with 40 uL of assay lysis buffer (previously described) without NLpep or NLpep78-HT (1:3,860 dilution) or NLpep79-HT (1:10,000 dilution) and shaken for 10 min at RT. 50 uL of NanoGlo+Fz was added and again shake for 10 min at RT. Luminescence was measured on GloMax® luminometer with 0.5 sec integration. FIGS. 105-107 illustrate the luminescence of various NLpolys in the absence of NLpep.
A single colony of various NLpolys were inoculated individually into 200 uL minimal media and grown for 20 hrs at 37° C. on shaker. […] 10 uL of this overnight culture was diluted into 190 uL auto-induction media (previously described) and grow for 18 hrs at 25° C. on shaker. 10 uL of the expression culture was mixed with 40 uL of assay lysis buffer (previously described) without NLpep or with NLpep78-HT (1:3,860 dilution) or NLpep79-HT (1:10,000 dilution).

[8] = system: NLpep79; test: Substrate specificity of NLpoly 5P and 11S with NLpep79 (Example 97); format: biochemical; conditions: with NLpep79, 11S compared with 5P
Method: E. coli clarified lysates were prepared for NLpoly 5P or 11S as described previously. The NLpoly lysates were then serially diluted in steps of 10-fold into PBS+0.1% Prionex.

wild-type non-luminescent polypeptide, sequence (Q9GV45 other isoform, or with tags, fused parts or gaps with the stated changes): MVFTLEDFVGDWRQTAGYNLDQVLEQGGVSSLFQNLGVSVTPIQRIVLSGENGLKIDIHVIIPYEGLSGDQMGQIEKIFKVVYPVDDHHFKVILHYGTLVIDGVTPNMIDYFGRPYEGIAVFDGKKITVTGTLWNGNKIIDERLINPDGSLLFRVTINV

With GVTAWRLCERILA [NLpep3] the “activity (luminescence) of single-mutation NLpep with wild-type NLpoly” value (“activity (luminescence)” for short) [1] was “not likely to be tolerated”.

In the case of GVTGWRLCKRILA [NLpep4], the “activity (luminescence)” value [1] is reported as “retains/improves activity”.

With GVTGWRLCERISA [NLpep5] the “activity (luminescence)” value [1] was “retains/improves activity”.

With DVTGWRLCERILA [NLpep2] the “activity (luminescence)” value [1] was “retains/improves activity”.

For NVTGYRLFKKISN [NLpep79], the “affinity between 11S and NLpep79” value [2] was “increase the affinity”.

In the case of NVSGWGLFKKISN [NLpep88], the “luminescence of 5P titrated with NLpep88-HT” value [3] is reported as “no increase in luminescence above 5P alone”.

B1: L149M (protein)
chain: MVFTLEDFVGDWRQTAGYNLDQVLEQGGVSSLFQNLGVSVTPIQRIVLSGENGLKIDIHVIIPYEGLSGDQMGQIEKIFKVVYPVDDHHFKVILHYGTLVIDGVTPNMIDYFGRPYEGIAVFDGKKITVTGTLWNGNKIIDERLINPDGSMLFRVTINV
With B1 the “luminescence relative to wild-type, RLU(mutant)/RLU(WT)” value [4] was 2.89 RLU(mutant)/RLU(WT) and the “luminescence relative to wild-type, RLU(mutant)/RLU(WT)” value [5] was 2.16 RLU(mutant)/RLU(WT).

B2: 11S: NLpoly variant 11S (12S-51) (protein)
chain: MVFTLEDFVGDWEQTAAYNLDQVLEQGGVSSLLQNLAVSVTPIQRIVRSGENALKIDIHVIIPYEGLSADQMAQIEEVFKVVYPVDDHHFKVILPYGTLVIDGVTPNMLNYFGRPYEGIAVFDGKKITVTGTLWNGNKIIDERLITPDGSMLFRVTINS
In the case of B2, the “luminescence in the absence of NLpep relative to WT NLpoly” value [6] is reported as about 500 fold, the “luminescence of NLpoly variant without NLpep or with NLpep78 or NLpep79” value [7] is reported as “improved luminescence over the other variants” and the “substrate specificity for furimazine” value [8] is reported as “superior specificity for furimazine than 5P”.

Source: patent publication US9797889B2, “Activation of bioluminescence by structural complementation” (Promega Corporation, priority 2013, dated 2017)
